The record followed here is publication PMC12540871.

This data set concerns the target CVB3 3D (Coxsackievirus B3, UniProt P03313 1724-2185). The experiment in a line: ITC. (ITC needs no label: the signal is the heat of the interaction.)

Chain of CVB3 3D (P03313 1724-2185): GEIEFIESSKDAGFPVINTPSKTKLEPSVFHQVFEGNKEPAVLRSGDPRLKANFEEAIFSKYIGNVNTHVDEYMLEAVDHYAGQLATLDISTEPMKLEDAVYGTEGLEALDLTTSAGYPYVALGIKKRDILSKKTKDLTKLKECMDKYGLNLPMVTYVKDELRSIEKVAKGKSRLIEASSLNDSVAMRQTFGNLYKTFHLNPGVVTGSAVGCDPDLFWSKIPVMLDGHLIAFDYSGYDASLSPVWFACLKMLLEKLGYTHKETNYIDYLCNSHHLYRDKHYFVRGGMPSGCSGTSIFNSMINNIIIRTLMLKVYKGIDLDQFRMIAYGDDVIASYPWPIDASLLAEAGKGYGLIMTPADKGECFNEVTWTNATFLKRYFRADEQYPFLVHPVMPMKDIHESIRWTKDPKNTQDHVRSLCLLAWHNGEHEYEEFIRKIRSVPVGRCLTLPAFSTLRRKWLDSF

B1: CVB3 CL WT (structured_RNA)
RNA: GGUAAAACAGCCUGUGGGUUGAUCCCACCCACAGGGCCCAUUGGGCGCUAGCACUCUGGUAUCACGGUACCUUUGUGCGCCUGUUUUACC
As for B1, the binding result is “no binding”.
